Measured values taken from article PMC8727134.

B1: MT1 (dsDNA)
DNA 1: GAAAAATAACGTATGG
DNA 2: CCATACGTTATTTTTC
B2: WT2 (dsDNA)
DNA 1: AGCTCTGTGGTAGAAT
DNA 2: ATTCTACCACAGAGCT
B3: MT2 (dsDNA)
DNA 1: AGCTCCGTTATAGAAT
DNA 2: ATTCTATAACGGAGCT

Each binder was assayed against RUNX1 Runt domain (His6-RUNX1);CBFbeta (His6-CBFβ) (mouse;mouse, UniProt Q03347;Q08024 24-189;1-187, |) (assay: EMSA).
Sequence of RUNX1 Runt domain (His6-RUNX1);CBFbeta (His6-CBFβ) (Q03347 24-189, chain 1 of 2): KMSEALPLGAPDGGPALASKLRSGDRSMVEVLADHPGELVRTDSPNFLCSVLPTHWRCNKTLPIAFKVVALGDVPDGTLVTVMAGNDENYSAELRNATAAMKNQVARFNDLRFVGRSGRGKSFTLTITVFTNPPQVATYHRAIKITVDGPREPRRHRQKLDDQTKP
Sequence of RUNX1 Runt domain (His6-RUNX1);CBFbeta (His6-CBFβ) (Q08024 whole entry, chain 2 of 2, the tested form may be a part): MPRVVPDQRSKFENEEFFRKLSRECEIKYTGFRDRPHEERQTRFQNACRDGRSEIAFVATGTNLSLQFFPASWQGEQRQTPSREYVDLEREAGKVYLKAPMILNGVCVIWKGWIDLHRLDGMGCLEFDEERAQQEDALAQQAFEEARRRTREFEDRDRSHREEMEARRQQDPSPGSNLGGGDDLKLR

Binding result, no binding:
B1
B2
B3
